What is called IC50 is the point on the concentration scale where inhibition reaches its midpoint. One may read the Kd as the free concentration of one partner at which half of the binding sites on the other are occupied at equilibrium, for simple one-to-one binding. Higher therefore signals lower affinity. A word on the stoichiometry N: it is a count of units in the complex or per binding partner.

The values that follow come from PMC7552008.

The target of data set [1] is NS1 RBD H5N1 (Influenza A virus (H5N1; allele A)) (UniProt Q5H7J4). Briefly: competition EMSA. A general note: Mobility shift assays separate free from complexed probe on a gel.
Data set [2] has as its target T1, NS1 RBD H7N1 (Influenza A virus (avian H7N1; allele B)) (UniProt Q1PST0).
T1 sequence: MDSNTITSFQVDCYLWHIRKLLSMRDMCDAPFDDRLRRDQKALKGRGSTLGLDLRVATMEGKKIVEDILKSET
The data set is described as follows: competition EMSA.

The target in data set [3] is NS1 RBD H3N2 (Influenza A virus (H3N2)) (UniProt I6T1Z2). The data set is described as follows: EMSA.
For data set [4], the target named is NS1 RBD H5N1 (Influenza A virus (H5N1; allele A)) (UniProt Q5H7J4). Briefly: EMSA.
In data set [5] the test system is NS1 RBD pdmH1N1 (Influenza A virus (pandemic H1N1)). The data set is described as follows: EMSA.
In data set [6] the target is wild type H7N1 NS1 RBD (RNA-binding domain of influenza A virus non-structural protein NS1, residues 1-73) (influenza A virus (avian H7N1)). The data set is described as follows: crystal structure.

On to “AGACAGCAUUAUGCUGUCUUU / AGACAGCAUUAUGCUGUCUUU [ZKO]”, for which, in data set [1], the IC50 came out at 90 nM.
Substance “CGCCUGUGUAGAGGUUACAGAGAUGUAACCUCACCACAGGCG [shDM05-GAGA]” showed an IC50 in data set [1] of 100 nM.
As for “GGUAACAACUCGUCAUAGGUCACUUGAUUGAAGUAUGACGGGCUGUUACC [DM03-midi]”, the IC50 in data set [1] is 1.8 nM; in data set [2] it was 2.8 nM.
For “GGUAACCACAUGAGUUACAGCAAAAGACCUGUGUAACUCAUGCUGUUACC [DM01-midi]” the same measures were 2.2 nM and 2.7 nM.
Turning to “GGUAACUGUAGAGGAUGGAGAGAUCCAUCCUCUACAGUUACC [shDM06-GAGA]”, the figures for the IC50 in data set [1] and in data set [2] were 1.1 nM and 0.85 nM, respectively.
For “GGUAACUGUAGAGGUUACAGAGAUGUAACCUCACCAGUUACC [shDM03-GAGA]” the same measures were 1.2 nM and 0.64 nM.
Consider “GGUAACUGUAGAGGUUACAGAGAUGUAACCUCUACAGUUACC [shDM02-GAGA]”, for which the IC50 in data set [1] amounted to 0.41 nM; in data set [2] it was 0.24 nM.
For the substance “GGUAACUGUUACAGUUACC / GGUAACUGUUACAGUUACC [AWFC01]”, the Kd is 3.7 nM in data set [3], 0.98 nM in data set [4] and 2.05 nM in data set [5]. The IC50 in data set [1] was found to be 1 nM.
“wild type H7N1 NS1 RBD (RNA-binding domain of influenza A virus non-structural protein NS1, residues 1-73) (domain or fragment)” returned a stoichiometry N in data set [6] of 2.
